From the Immune Epitope Database (IEDB)
Values belong to the sequence of their own block, whether it stands above or below them.

Experiments:
HLA-C*15:02 = experiment: IEDB peptide-MHC binding, purified MHC/direct/fluorescence; filed as Kd, often an IC50 or EC50 that approximates it; ≥ and ≤ were set here for values at or beyond the usual limits of such assays
HLA-A*02:01 [1] = experiment: IEDB peptide-MHC binding, purified MHC/competitive/fluorescence; filed as Kd, often an IC50 or EC50 that approximates it; ≥ and ≤ were set here for values at or beyond the usual limits of such assays
HLA-A*02:03 [2] = experiment: as above
HLA-A*02:11 = experiment: as above
HLA-A*02:12 = experiment: as above
HLA-A*02:16 = experiment: as above
HLA-A*02:19 = experiment: as above
HLA-A*24:03 = experiment: as above
HLA-A*26:01 = experiment: as above
HLA-A*31:01 = experiment: as above; conditions: source organism: Escherichia coli 536
HLA-A*68:02 = experiment: as above
HLA-A*69:01 = experiment: as above
HLA-B*15:01 = experiment: as above
HLA-B*18:01 = experiment: as above
HLA-B*39:01 = experiment: as above
HLA-B*46:01 = experiment: as above
HLA-B*51:01 = experiment: as above
HLA-B*57:01 = experiment: as above
HLA-C*12:03 = experiment: IEDB peptide-MHC binding, purified MHC/direct/fluorescence; filed as Kd, often an IC50 or EC50 that approximates it; ≥ and ≤ were set here for values at or beyond the usual limits of such assays; conditions: source organism: Bacillus anthracis str. A0488
HLA-A*29:02 = experiment: IEDB peptide-MHC binding, purified MHC/competitive/fluorescence; filed as Kd, often an IC50 or EC50 that approximates it; ≥ and ≤ were set here for values at or beyond the usual limits of such assays
HLA-A*03:01 = experiment: as above
HLA-B*15:17 = experiment: as above; conditions: source organism: Cryptosporidium parvum Iowa II
HLA-B*27:03 = experiment: as above
HLA-B*35:01 = experiment: as above
HLA-A*02:01 [3] = experiment: IEDB peptide-MHC binding, purified MHC/competitive/radioactivity; filed as Kd, often an IC50 or EC50 that approximates it; ≥ and ≤ were set here for values at or beyond the usual limits of such assays
HLA-A*02:03 [4] = experiment: as above
HLA-A*02:06 [5] = experiment: as above
HLA-A*02:17 = experiment: as above
HLA-A*02:06 [6] = experiment: IEDB peptide-MHC binding, purified MHC/competitive/fluorescence; filed as Kd, often an IC50 or EC50 that approximates it; ≥ and ≤ were set here for values at or beyond the usual limits of such assays
HLA-B*08:01 = experiment: IEDB peptide-MHC binding, purified MHC/competitive/radioactivity; filed as Kd, often an IC50 or EC50 that approximates it; ≥ and ≤ were set here for values at or beyond the usual limits of such assays; conditions: source organism: Dengue virus 1 Brazil/97-11/1997
HLA-A*32:07 = experiment: IEDB peptide-MHC binding, purified MHC/competitive/fluorescence; filed as Kd, often an IC50 or EC50 that approximates it; ≥ and ≤ were set here for values at or beyond the usual limits of such assays; conditions: source organism: West Nile virus
HLA-A*32:15 = experiment: as above; conditions: source organism: West Nile virus
HLA-A*68:23 = experiment: as above; conditions: source organism: West Nile virus
HLA-B*15:42 = experiment: as above; conditions: source organism: West Nile virus
HLA-B*45:06 = experiment: as above; conditions: source organism: West Nile virus
HLA-B*83:01 = experiment: as above; conditions: source organism: West Nile virus
HLA-B*07:02 = experiment: IEDB peptide-MHC binding, purified MHC/direct/fluorescence; filed as Kd, often an IC50 or EC50 that approximates it; ≥ and ≤ were set here for values at or beyond the usual limits of such assays; conditions: source organism: Mammarenavirus juninense
HLA-B*53:01 = experiment: IEDB peptide-MHC binding, purified MHC/competitive/radioactivity; filed as Kd, often an IC50 or EC50 that approximates it; ≥ and ≤ were set here for values at or beyond the usual limits of such assays; conditions: source organism: Mammarenavirus juninense
HLA-B*54:01 = experiment: as above; conditions: source organism: Mammarenavirus juninense
[7] = source organism: Escherichia coli 536
[8] = source organism: Bacillus anthracis str. A0488
[9] = source organism: Cryptosporidium parvum Iowa II
[10] = source organism: Salmonella enterica subsp. enterica serovar Typhi
[11] = source organism: Dengue virus 2 Jamaica/1409/1983
[12] = source organism: Dengue virus 4 Philippines/H241/1956
[13] = source organism: Human immunodeficiency virus 1
[14] = source organism: Human herpesvirus 5 strain Towne
[15] = source organism: Dengue virus 1 Singapore/S275/1990
[16] = source organism: Dengue virus 1 Brazil/97-11/1997
[17] = source organism: Entamoeba histolytica HM-1:IMSS
[18] = source organism: Dengue virus 3 China/80-2/1980
[19] = source organism: Mammarenavirus juninense

Sequence: VTNRHEEKF
Kd (HLA-C*15:02; source organism: human gammaherpesvirus 4): 4.27 µM

Kd (HLA-A*02:01 [1]; [7]): ≥ 20 µM | Kd (HLA-A*02:03 [2]; [7]): ≥ 20 µM | Kd (HLA-A*02:11; [7]): ≥ 20 µM | Kd (HLA-A*02:12; [7]): ≥ 20 µM | Kd (HLA-A*02:16; [7]): ≥ 20 µM | Kd (HLA-A*02:19; [7]): ≥ 20 µM | Kd (HLA-A*24:03; [7]): ≥ 20 µM | Kd (HLA-A*26:01; [7]): ≥ 20 µM | Kd (HLA-A*31:01): 0.0456 µM | Kd (HLA-A*68:02; [7]): ≥ 20 µM | Kd (HLA-A*69:01; [7]): ≥ 20 µM | Kd (HLA-B*15:01; [7]): ≥ 20 µM | Kd (HLA-B*18:01; [7]): ≥ 20 µM | Kd (HLA-B*39:01; [7]): ≥ 20 µM | Kd (HLA-B*46:01; [7]): ≥ 20 µM | Kd (HLA-B*51:01; [7]): ≥ 20 µM | Kd (HLA-B*57:01; [7]): ≥ 20 µM
Sequence: RVGIYFGMK

Sequence: FVFGIPLLV
Kd (HLA-C*12:03): ≤ 0.001 µM | Kd (HLA-C*15:02; [8]): 0.041 µM | Kd (HLA-A*29:02; [8]): 0.0002 µM

Sequence: VYWENEVSI
Kd (HLA-A*02:01 [1]; [9]): ≥ 20 µM | Kd (HLA-A*02:03 [2]; [9]): ≥ 20 µM | Kd (HLA-A*02:11; [9]): ≥ 20 µM | Kd (HLA-A*02:12; [9]): 0.287 µM | Kd (HLA-A*02:16; [9]): ≥ 20 µM | Kd (HLA-A*02:19; [9]): ≥ 20 µM | Kd (HLA-A*03:01; [9]): ≥ 20 µM | Kd (HLA-A*26:01; [9]): ≥ 20 µM | Kd (HLA-A*29:02; [9]): ≥ 20 µM | Kd (HLA-A*68:02; [9]): ≥ 20 µM | Kd (HLA-A*69:01; [9]): ≥ 20 µM | Kd (HLA-B*15:01; [9]): ≥ 20 µM | Kd (HLA-B*15:17): ≥ 20 µM | Kd (HLA-B*18:01; [9]): ≥ 20 µM | Kd (HLA-B*27:03; [9]): ≥ 20 µM | Kd (HLA-B*39:01; [9]): ≥ 20 µM | Kd (HLA-B*46:01; [9]): ≥ 20 µM | Kd (HLA-B*51:01; [9]): ≥ 20 µM | Kd (HLA-B*57:01; [9]): ≥ 20 µM

Sequence: HVCYFSHPY
Kd (HLA-A*03:01; [10]): ≥ 20 µM | Kd (HLA-B*35:01; [10]): 0.0007 µM

Sequence: LIFILLTAV
Kd (HLA-A*02:01 [3]; [11]): 0.0744 µM | Kd (HLA-A*02:03 [4]; [11]): 0.0562 µM | Kd (HLA-A*02:06 [5]; [11]): 0.497 µM | Kd (HLA-A*02:17; [11]): 3.59 µM

Sequence: FMTATPPGA
Kd (HLA-A*02:01 [3]; [12]): 0.049 µM | Kd (HLA-A*02:03 [4]; [12]): 0.152 µM | Kd (HLA-A*02:17; [12]): 6.44 µM

Sequence: DLADQLIHL
Kd (HLA-A*02:01 [1]; [13]): 0.178 µM | Kd (HLA-A*02:03 [2]; [13]): 0.136 µM | Kd (HLA-A*02:06 [6]; [13]): 0.059 µM | Kd (HLA-A*02:11; [13]): 0.033 µM | Kd (HLA-A*02:12; [13]): 0.476 µM | Kd (HLA-A*02:16; [13]): 0.0555 µM | Kd (HLA-A*02:19; [13]): 0.0425 µM | Kd (HLA-A*69:01; [13]): 0.0198 µM

Sequence: NLVPMVATV
Kd (HLA-A*02:06 [6]; [14]): ≤ 0.0001 µM | Kd (HLA-A*02:11; [14]): ≤ 0.0001 µM | Kd (HLA-A*02:12; [14]): 0.00155 µM | Kd (HLA-A*02:16; [14]): 0.000543 µM | Kd (HLA-A*02:19; [14]): 0.0006 µM | Kd (HLA-A*69:01; [14]): 0.075 µM

Sequence: TLLLLTLLAT
Kd (HLA-A*02:01 [3]; [11]): 0.141 µM | Kd (HLA-A*02:17; [11]): 1.32 µM

Sequence: LLMRTTWAL
Kd (HLA-A*02:01 [3]; [15]): 0.0214 µM | Kd (HLA-A*02:03 [4]; [16]): 0.000817 µM | Kd (HLA-A*02:06 [5]; [16]): 0.00143 µM | Kd (HLA-A*02:17; [15]): 0.00489 µM | Kd (HLA-B*08:01): 0.0207 µM

Sequence: KTFEWGVFY
Kd (HLA-A*02:03 [2]; [17]): ≥ 20 µM | Kd (HLA-A*02:12; [17]): ≥ 20 µM | Kd (HLA-A*02:16; [17]): ≥ 20 µM | Kd (HLA-A*02:19; [17]): ≥ 20 µM | Kd (HLA-A*24:03; [17]): ≥ 20 µM | Kd (HLA-A*26:01; [17]): ≥ 20 µM | Kd (HLA-A*29:02; [17]): 0.0005 µM | Kd (HLA-A*68:02; [17]): ≥ 20 µM | Kd (HLA-A*69:01; [17]): ≥ 20 µM | Kd (HLA-B*27:03; [17]): ≥ 20 µM | Kd (HLA-B*39:01; [17]): ≥ 20 µM

Sequence: LLLGLMILL
Kd (HLA-A*02:01 [3]; [18]): 0.0136 µM | Kd (HLA-A*02:17; [18]): 0.11 µM

Sequence: YMPTVIEEL
Kd (HLA-A*02:01 [3]; [12]): 0.0396 µM | Kd (HLA-A*02:03 [4]; [12]): 0.0919 µM | Kd (HLA-A*02:06 [5]; [12]): 0.0469 µM | Kd (HLA-A*02:17; [12]): 0.00523 µM

Sequence: ETTNWLWTF
Kd (HLA-A*32:07): 0.0017 µM | Kd (HLA-A*32:15): 0.0185 µM | Kd (HLA-A*68:23): 0.0022 µM | Kd (HLA-B*15:42): ≥ 5 µM | Kd (HLA-B*45:06): ≥ 5 µM | Kd (HLA-B*83:01): ≥ 5 µM

Sequence: KTIPVAMTL
Kd (HLA-C*15:02; source organism: Salmonella enterica subsp. enterica serovar Typhimurium str. LT2): 0.015 µM

Sequence: LPTTITVPV
Kd (HLA-B*07:02): 0.824 µM | Kd (HLA-B*35:01; [19]): ≤ 0.0001 µM | Kd (HLA-B*51:01; [19]): 0.7 µM | Kd (HLA-B*53:01): 0.127 µM | Kd (HLA-B*54:01): 0.009 µM

Sequence: KLSMGLIAI
Kd (HLA-A*02:01 [3]; [12]): 0.0124 µM | Kd (HLA-A*02:03 [4]; [12]): 0.0314 µM | Kd (HLA-A*02:17; [12]): 2.48 µM
